Test results from patent US20110318308A1, “LIPOCALIN-TYPE PROSTAGLANDIN D2 SYNTHASE AS A BIOMARKER FOR LUNG CANCER PROGRESSION AND PROGNOSIS” (WINTHROP-UNIVERSITY HOSPITAL, priority 2010, published 2011).
“Also recorded” adds a separate entry of the source.

Key:
[1] = test system: A549 cells; conditions: cited from earlier work
[2] = test system: A549 cells; experiment: PDGF-stimulated trans-well migration assay, A549 cells; format: cell-based, human; conditions: for decrease in PGDF stimulated A549 migration: 5 h, trans-well inserts; for PDGF-stimulated migration of A549 cells: exogenously added L-PGDS, qualitative statement
Experimental: Migration assays were performed using 24-well cell culture inserts with 8.0 μm polyethylene terephthalate cyclopore membranes (Falcon) as detailed in Lundberg M S, Curto K A, Bilato C, Monticone R E, Crow M T. Regulation of vascular smooth muscle migration by mitogen-activated protein kinase and calcium/calmodulin-dependent protein kinase II signaling pathways. J Mol Cell Cardiol 1998; 30:2377-89. The underside of the membrane was coated with 100 μl rat tail collagen type I (50 μg/ml) for 18-20 h, washed and air-dried before each experiment. Cells were trypsinized and re-suspended in RPMI. Then 2×10^4 cells/250 μl were loaded into the cell culture inserts. The inserts were then added to the wells of 24-well plates which were filled with PDGF-BB diluted in RPMI with 0.1% BSA, and where indicated, L-PGDS was also added to this medium below the inserts.
The chambers were then incubated at 37° C. for 5 h to allow for cell migration. Afterwards, cells were completely removed from the upper side of the membrane with a cotton swab and the remaining migrated cells fixed and stained with Diff-Quik® solution (Dade Behring, Newark, Del.). Results are reported as the mean+/−SEM of five different fields, from three experiments, counted at 200× magnification.
The effect of L-PGDS on A549 migration was examined using trans-well inserts. FIG. 7 illustrates a 42% decrease in PGDF stimulated A549 migration in the presence of […] L-PGDS and a 77% decrease in the presence of […] L-PGDS. […] Cells were cultured and loaded into collagen coated […] cell culture inserts in the absence or presence of L-PGDS (25 or 50 μg/ml) as described above. Actual fields at 200× magnification are presented.

[3] = test system: mouse lung epithelial (MLE) cells; experiment: MTS cell proliferation assay, control mouse lung epithelial (MLE) cells; format: cell-based; conditions: 18 h incubation
Experimental: (§1) The effect of exogenously added L-PGDS on lung cell growth in culture was determined by MTS proliferation assay (Promega, Madison, Wis.). […] MLE cell proliferation was unaffected at L-PGDS concentrations up to […] but ceased at a concentration of 25 mg/l and above, as shown in FIG. 6.
(§2) Cell proliferation was measured with the use of a CellTiter 96 AQeous Non-Radioactive Cell Proliferation Assay (Promega, Madison, Wis.). Briefly, cells were plated in 96-well plates at a density of 500 cells/well in 200 μl of medium with 5% FBS. The cells were incubated at 37° C. in a humidified 5% CO2 atmosphere for the indicated time, after which 20 μl of combined MTS/PMS solution (Promega) was added per well. After a 2 h incubation at 37° C., absorbance at 490 nm was measured using an enzyme-linked immunosorbent assay (ELISA) plate reader. Data represent the average absorbance of three experiments each performed in triplicate.

[4] = test system: A549 cells; experiment: MTS cell proliferation assay, A549 cells with exogenously added L-PGDS; format: cell-based, human; conditions: for A549 hyperproliferation: exogenously added L-PGDS, qualitative statement
Experimental: as §1, §2
The effect of exogenously added L-PGDS on A549 proliferation was observed.

[5] = test system: Lipocalin-type prostaglandin D2 synthase (EC=5.3.99.2); conditions: alanine substitution in human L-PGDS; Zhou et al., FASEB J. 2010; cited from earlier work

**Q.** For CCCCC/C=C/C=C1/C(=O)C=C[C@@H]1C/C=C\CCCC(=O)O [15d-PGD2, 15-deoxy-Delta12,14-prostaglandin J2], which “role in PGD2-induced apoptosis in A549 cells” value ([1]; PGD2 metabolites) is on record?
**A.** likely candidate for the principal apoptotic inducer

**Q.** What does the source list for CCCCC[C@H](O)/C=C/[C@H]1C(=O)C[C@H](O)[C@@H]1C/C=C\CCCC(=O)O [PGD2, Prostaglandin D2]?
**A.** A549 cell death / apoptosis ([1]; A549 cells treated with PGD2): induces A549 cell death through the intrinsic apoptotic pathway; involvement of DP or CRTH2/DP2 in PGD2-induced A549 cell death ([1]; DP and CRTH2/DP2 blocked with BWA868C and ramatroban): does not appear to involve either DP or CRTH2/DP2

B1: L-PGDS: Lipocalin-type prostaglandin D2 synthase protein, exogenously added to cultured cells (protein, UniProt P41222 23-190, looked up)
Prostaglandin-H2 D-isomerase: APEAQVSVQPNFQQDKFLGRWFSAGLASNSSWLREKKAALSMCKSVVAPATDGGLNLTSTFLRKNQCETRTMLLQPAGSLGSYSYRSPHWGSTYSVSVVETDYDQYALLYSQGSKGPGEDFRMATLYSRTQTPRAELKEKFTAFCKAQGFTEDTIVFLPQTDKCMTEQ
**Q.** Which “decrease in PGDF stimulated A549 migration” value ([2]; 25 μg/μl L-PGDS) does the source give for B1 here?
**A.** 42%

**Q.** And the “decrease in PGDF stimulated A549 migration” value ([2]; 50 μg/μl L-PGDS)?
**A.** 77%

**Q.** What about the A549 migration inhibition ([2]; 100 μg/μl L-PGDS (data not shown)) of the same molecule?
**A.** no further increase in migration inhibition

**Q.** What about the “PDGF-stimulated migration of A549 cells” value [2] of the same molecule?
**A.** suppresses; also recorded: inhibits

**Q.** What about the “PDGF-stimulated migration of A549 cells” value ([2]; listed as LPGDS) of the same molecule?
**A.** suppress

**Q.** What about the “L-PGDS concentration at which MLE cell proliferation ceased” value [3] of the same molecule?
**A.** ≥ 25 mg/L

**Q.** What about the “L-PGDS concentrations at which MLE cell proliferation was unaffected” value [3] of the same molecule?
**A.** up to 10 mg/dl

**Q.** What about the A549 cell proliferation ([4]; L-PGDS 1-50 mg/l, 18 h incubation, MTS assay) of the same molecule?
**A.** marked inhibition

**Q.** And the “A549 hyper-proliferative growth (OD490nm)” value ([4]; exogenously added L-PGDS 0, 10, 25, 50 μg/ml, proliferation determined after 2 h)?
**A.** dose responsive inhibition

**Q.** What about the A549 hyperproliferation [4] of the same molecule?
**A.** suppresses

**Q.** And the A549 hyperproliferation ([4]; listed as LPGDS)?
**A.** suppress

B2: 64 M→A: human L-PGDS with residue 64 M changed to A (protein, UniProt P41222 23-190, looked up, variant M64A)
Prostaglandin-H2 D-isomerase: APEAQVSVQPNFQQDKFLGRWFSAGLASNSSWLREKKAALSACKSVVAPATDGGLNLTSTFLRKNQCETRTMLLQPAGSLGSYSYRSPHWGSTYSVSVVETDYDQYALLYSQGSKGPGEDFRMATLYSRTQTPRAELKEKFTAFCKAQGFTEDTIVFLPQTDKCMTEQ
**Q.** With B2 as the molecule, how does the “change of enzyme activity by sequence modification” value (from here on “change of enzyme activity”) [5] read?
**A.** Reduces enzyme activity almost ten-fold

B3: 131 L→A: human L-PGDS with residue 131 L changed to A (protein, UniProt P41222 23-190, looked up, variant L131A)
Prostaglandin-H2 D-isomerase: APEAQVSVQPNFQQDKFLGRWFSAGLASNSSWLREKKAALSMCKSVVAPATDGGLNLTSTFLRKNQCETRTMLLQPAGSLGSYSYRSPHWGSTYSVSVVETDYDQYALAYSQGSKGPGEDFRMATLYSRTQTPRAELKEKFTAFCKAQGFTEDTIVFLPQTDKCMTEQ
**Q.** For B3, which “change of enzyme activity” value [5] is on record?
**A.** Reduces enzyme activity almost ten-fold

B4: 83 F→A: human L-PGDS with residue 83 F changed to A (protein, UniProt P41222 23-190, looked up, variant F83A)
Prostaglandin-H2 D-isomerase: APEAQVSVQPNFQQDKFLGRWFSAGLASNSSWLREKKAALSMCKSVVAPATDGGLNLTSTALRKNQCETRTMLLQPAGSLGSYSYRSPHWGSTYSVSVVETDYDQYALLYSQGSKGPGEDFRMATLYSRTQTPRAELKEKFTAFCKAQGFTEDTIVFLPQTDKCMTEQ
**Q.** With B4 as the molecule, how does the “change of enzyme activity” value [5] read?
**A.** Reduces enzyme activity about five-fold

B5: 149 Y→A: human L-PGDS with residue 149 Y changed to A (protein, UniProt P41222 23-190, looked up, variant Y149A)
Prostaglandin-H2 D-isomerase: APEAQVSVQPNFQQDKFLGRWFSAGLASNSSWLREKKAALSMCKSVVAPATDGGLNLTSTFLRKNQCETRTMLLQPAGSLGSYSYRSPHWGSTYSVSVVETDYDQYALLYSQGSKGPGEDFRMATLASRTQTPRAELKEKFTAFCKAQGFTEDTIVFLPQTDKCMTEQ
**Q.** For B5, which “change of enzyme activity” value [5] is on record?
**A.** Increases enzyme activity about two-fold

B6: 79 L→A: human L-PGDS with residue 79 L changed to A (protein, UniProt P41222 23-190, looked up, variant L79A)
Prostaglandin-H2 D-isomerase: APEAQVSVQPNFQQDKFLGRWFSAGLASNSSWLREKKAALSMCKSVVAPATDGGLNATSTFLRKNQCETRTMLLQPAGSLGSYSYRSPHWGSTYSVSVVETDYDQYALLYSQGSKGPGEDFRMATLYSRTQTPRAELKEKFTAFCKAQGFTEDTIVFLPQTDKCMTEQ
**Q.** For B6, which “change of enzyme activity” value [5] is on record?
**A.** Reduces enzyme activity over ten-fold

B7: 59 K→A: human L-PGDS with residue 59 K changed to A (protein, UniProt P41222 23-190, looked up, variant K59A)
Prostaglandin-H2 D-isomerase: APEAQVSVQPNFQQDKFLGRWFSAGLASNSSWLREKAAALSMCKSVVAPATDGGLNLTSTFLRKNQCETRTMLLQPAGSLGSYSYRSPHWGSTYSVSVVETDYDQYALLYSQGSKGPGEDFRMATLYSRTQTPRAELKEKFTAFCKAQGFTEDTIVFLPQTDKCMTEQ
**Q.** Which “change of enzyme activity” value [5] does the source give for B7 here?
**A.** Increases enzyme activity about two-fold
